US20230374564

Molecular target: T1, VWF73-G6PDH conjugate (inhibited G6PDH-VWF reporter enzyme complex), P11411
T1 chain 1: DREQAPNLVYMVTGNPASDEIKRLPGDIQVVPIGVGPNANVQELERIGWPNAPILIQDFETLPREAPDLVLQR
T1 chain 2: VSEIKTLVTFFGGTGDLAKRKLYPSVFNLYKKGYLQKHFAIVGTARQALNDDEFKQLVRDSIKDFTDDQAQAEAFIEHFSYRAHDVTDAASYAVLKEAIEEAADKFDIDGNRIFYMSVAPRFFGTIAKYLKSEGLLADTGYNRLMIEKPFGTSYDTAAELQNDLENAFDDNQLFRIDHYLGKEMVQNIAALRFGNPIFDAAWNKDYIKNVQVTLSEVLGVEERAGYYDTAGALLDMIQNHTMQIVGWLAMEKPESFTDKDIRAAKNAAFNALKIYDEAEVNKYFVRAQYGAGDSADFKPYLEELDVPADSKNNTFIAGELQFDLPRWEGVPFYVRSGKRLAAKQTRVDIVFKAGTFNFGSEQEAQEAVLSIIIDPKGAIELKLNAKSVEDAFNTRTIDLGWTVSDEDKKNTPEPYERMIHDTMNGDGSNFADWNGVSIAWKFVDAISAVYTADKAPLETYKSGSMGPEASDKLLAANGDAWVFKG

B1: ADAMTS-13 (A Disintegrin And Metalloproteinase with a Thrombospondin type 1 motif, member 13) (protein)
chain: AAGGILHLELLVAVGPDVFQAHQEDTERYVLTNLNIGAELLRDPSLGAQFRVHLVKMVILTEPEGAPNITANLTSSLLSVCGWSQTINPEDDTDPGHADLVLYITRFDLELPDGNRQVRGVTQLGGACSPTWSCLITEDTGFDLGVTIAHEIGHSFGLEHDGAPGSGCGPSGHVMASDGAAPRAGLAWSPCSRRQLLSLLSAGRARCVWDPPRPQPGSAGHPPDAQPGLYYSANEQCRVAFGPKAVACTFAREHLDMCQALSCHTDPLDQSSCSRLLVPLLDGTECGVEKWCSKGRCRSLVELTPIAAVHGRWSSWGPRSPCSRSCGGGVVTRRRQCNNPRPAFGGRACVGADLQAEMCNTQACEKTQLEFMSQQCARTDGQPLRSSPGGASFYHWGAAVPHSQGDALCRHMCRAIGESFIMKRGDSFLDGTRCMPSGPREDGTLSLCVSGSCRTFGCDGRMDSQQVWDRCQVCGGDNSTCSPRKGSFTAGRAREYVTFLTVTPNLTSVYIANHRPLFTHLAVRIGGRYVVAGKMSISPNTTYPSLLEDGRVEYRVALTEDRLPRLEEIRIWGPLQEDADIQVYRRYGEEYGNLTRPDITFTYFQPKPRQAWVWAAVRGPCSVSCGAGLRWVNYSCLDQARKELVETVQCQGSQQPPAWPEACVLEPCPPYWAVGDFGPCSASCGGGLRERPVRCVEAQGSLLKTLPPARCRAGAQQPAVALETCNPQPCPARWEVSEPSSCTSAGGAGLALENETCVPGADGLEAPVTEGPGSVDEKLPAPEPCVGMSCPPGWGHLDATSAGEKAPSPWGSIRTGAQAAHVWTPAAGSCSVSCGRGLMELRFLCMDSALRVPVQEELCGLASKPGSRREVCQAVPCPARWQYKLAACSVSCGRGVVRRILYCARAHGEDDGEEILLDTQCQGLPRPEPQEACSLEPCPPRWKVMSLGPCSASCGLGTARRSVACVQLDQGQDVEVDEAACAALVRPEASVPCLIADCTYRWHVGTWMECSVSCGDGIQRRRDTCLGPQAQAPVPADFCQHLPKPVTVRGCWAGPCVGQGTPSLVPHEEAAAPGRTTATPAGASLEWSQARGLLFSPAPQPRRLLPGPQENSVQSSACGRQHLEPTGTIDMRGPGQADCAVAIGRPLGEVVTLRVLESSLNCSAGDMLLLWGRLTWRKMCRKLLDMTFSSKTNTLVVRQRCGRPGGGVLLRYGSQLAPETFYRECDMQLFGPWGEIVSPSLSPATSNAGGCRLFINVAPHARIAIHALATNMGAGTEGANASYILIRDTHSLRTTAFHGQQVLYWESESSQAEMEFSEGFLKAQASLRGQYWTLQSWVPEMQDPQSWKGKEGT
- ADAMTS-13 activity (% of the norm); plasma of TTP patient 01: TTP patient 01 with 9% of the norm
- ADAMTS-13 activity (% of the norm); plasma of TTP patient 02: TTP patient 02 with 7% of the norm
- ADAMTS-13 activity (% of the norm); plasma of patient with ADAMTS-13 autoantibodies: patient with 21% of the norm
- reactivation of G6PDH activity by cleavage of coupled VWF73 (absorption at 340 nm): occurs in a concentration-dependent manner with respect to ADAMTS-13 activity
- Δ mOD/min Average; 0% normal plasma in ADAMTS-13-deficient plasma: 208 Δ mOD/min
- Δ mOD/min Average; 5% normal plasma in ADAMTS-13-deficient plasma: 215 Δ mOD/min
- Δ mOD/min Average; 10% normal plasma in ADAMTS-13-deficient plasma: 220 Δ mOD/min
- Δ mOD/min Average; 25% normal plasma in ADAMTS-13-deficient plasma: 232 Δ mOD/min
- Δ mOD/min Average; 50% normal plasma in ADAMTS-13-deficient plasma: 256 Δ mOD/min
- Δ mOD/min Average; 75% normal plasma in ADAMTS-13-deficient plasma: 286 Δ mOD/min
- Δ mOD/min Average; 100% normal plasma in ADAMTS-13-deficient plasma: 311 Δ mOD/min
- Δ mOD/min Average; plasma of Healthy donor 01: 310 Δ mOD/min
- Δ mOD/min Average; plasma of Healthy donor 02: 311 Δ mOD/min
- Δ mOD/min Average; plasma of Healthy donor 03: 307 Δ mOD/min
- Δ mOD/min Average; plasma of Healthy donor 04: 310 Δ mOD/min
- Δ mOD/min Average; plasma of Healthy donor 05: 314 Δ mOD/min
- Δ mOD/min Average; plasma of Patient with ADAMTS-13 autoantibodies: 228 Δ mOD/min
- Δ mOD/min Average; plasma of TTP patient 01: 218 Δ mOD/min
- Δ mOD/min Average; plasma of TTP patient 02: 216 Δ mOD/min
- Δ mOD/min Measurement 1; 0% normal plasma in ADAMTS-13-deficient plasma: 208 Δ mOD/min
- Δ mOD/min Measurement 1; 5% normal plasma in ADAMTS-13-deficient plasma: 216 Δ mOD/min
- Δ mOD/min Measurement 1; 10% normal plasma in ADAMTS-13-deficient plasma: 221 Δ mOD/min
- Δ mOD/min Measurement 1; 25% normal plasma in ADAMTS-13-deficient plasma: 232 Δ mOD/min
- Δ mOD/min Measurement 1; 50% normal plasma in ADAMTS-13-deficient plasma: 255 Δ mOD/min
- Δ mOD/min Measurement 1; 75% normal plasma in ADAMTS-13-deficient plasma: 286 Δ mOD/min
- Δ mOD/min Measurement 1; 100% normal plasma in ADAMTS-13-deficient plasma: 310 Δ mOD/min
- Δ mOD/min Measurement 1; plasma of Healthy donor 01: 309 Δ mOD/min
- Δ mOD/min Measurement 1; plasma of Healthy donor 02: 310 Δ mOD/min
- Δ mOD/min Measurement 1; plasma of Healthy donor 03: 305 Δ mOD/min
- Δ mOD/min Measurement 1; plasma of Healthy donor 04: 312 Δ mOD/min
- Δ mOD/min Measurement 1; plasma of Healthy donor 05: 315 Δ mOD/min
- Δ mOD/min Measurement 1; plasma of Patient with ADAMTS-13 autoantibodies: 227 Δ mOD/min
- Δ mOD/min Measurement 1; plasma of TTP patient 01: 218 Δ mOD/min
- Δ mOD/min Measurement 1; plasma of TTP patient 02: 220 Δ mOD/min
- Δ mOD/min Measurement 2; 0% normal plasma in ADAMTS-13-deficient plasma: 208 Δ mOD/min
- Δ mOD/min Measurement 2; 5% normal plasma in ADAMTS-13-deficient plasma: 216 Δ mOD/min
- Δ mOD/min Measurement 2; 10% normal plasma in ADAMTS-13-deficient plasma: 221 Δ mOD/min
- Δ mOD/min Measurement 2; 25% normal plasma in ADAMTS-13-deficient plasma: 233 Δ mOD/min
- Δ mOD/min Measurement 2; 50% normal plasma in ADAMTS-13-deficient plasma: 257 Δ mOD/min
- Δ mOD/min Measurement 2; 75% normal plasma in ADAMTS-13-deficient plasma: 288 Δ mOD/min
- Δ mOD/min Measurement 2; 100% normal plasma in ADAMTS-13-deficient plasma: 312 Δ mOD/min
- Δ mOD/min Measurement 2; plasma of Healthy donor 01: 310 Δ mOD/min
- Δ mOD/min Measurement 2; plasma of Healthy donor 02: 311 Δ mOD/min
- Δ mOD/min Measurement 2; plasma of Healthy donor 03: 309 Δ mOD/min
- Δ mOD/min Measurement 2; plasma of Healthy donor 04: 311 Δ mOD/min
- Δ mOD/min Measurement 2; plasma of Healthy donor 05: 312 Δ mOD/min
- Δ mOD/min Measurement 2; plasma of Patient with ADAMTS-13 autoantibodies: 228 Δ mOD/min
- Δ mOD/min Measurement 2; plasma of TTP patient 01: 219 Δ mOD/min
- Δ mOD/min Measurement 2; plasma of TTP patient 02: 215 Δ mOD/min
- Δ mOD/min Measurement 3; 0% normal plasma in ADAMTS-13-deficient plasma: 207 Δ mOD/min
- Δ mOD/min Measurement 3; 5% normal plasma in ADAMTS-13-deficient plasma: 214 Δ mOD/min
- Δ mOD/min Measurement 3; 10% normal plasma in ADAMTS-13-deficient plasma: 219 Δ mOD/min
- Δ mOD/min Measurement 3; 25% normal plasma in ADAMTS-13-deficient plasma: 233 Δ mOD/min
- Δ mOD/min Measurement 3; 50% normal plasma in ADAMTS-13-deficient plasma: 254 Δ mOD/min
- Δ mOD/min Measurement 3; 75% normal plasma in ADAMTS-13-deficient plasma: 286 Δ mOD/min
- Δ mOD/min Measurement 3; 100% normal plasma in ADAMTS-13-deficient plasma: 311 Δ mOD/min
- Δ mOD/min Measurement 3; plasma of Healthy donor 01: 311 Δ mOD/min
- Δ mOD/min Measurement 3; plasma of Healthy donor 02: 312 Δ mOD/min
- Δ mOD/min Measurement 3; plasma of Healthy donor 03: 306 Δ mOD/min
- Δ mOD/min Measurement 3; plasma of Healthy donor 04: 309 Δ mOD/min
- Δ mOD/min Measurement 3; plasma of Healthy donor 05: 314 Δ mOD/min
- Δ mOD/min Measurement 3; plasma of Patient with ADAMTS-13 autoantibodies: 229 Δ mOD/min
- Δ mOD/min Measurement 3; plasma of TTP patient 01: 218 Δ mOD/min
- Δ mOD/min Measurement 3; plasma of TTP patient 02: 214 Δ mOD/min
